{
  "source": "paper PMC6735921",
  "key": {"[1]": {"target": "T1, VEGF165 (VEGF-A isoform 165) (UniProt P15692-4 27-191)", "experiment": "EMSA"}, "[2]": {"target": "T1, VEGF165 (VEGF-A isoform 165)", "experiment": "EMSA", "remark": "listed apart in the source"}},
  "note": "Like-named read-outs stand apart in the source and are kept apart here.",
  "data": [
    {"binder": "TGTGGGGGTGGACGGGCCGGGTAGA (structured_DNA)", "note": "[V7t1 not-annealed (about 73% dimer, 26% monomer)]", "values": [
      {"measurement": "binding result", "setting": "[1]", "result": "binds"}
    ]},
    {"binder": "TGTGGGGGTGGACGGGCCGGGTAGA (structured_DNA)", "note": "[V7t1 dimer (purified SE-HPLC peak 1)]", "values": [
      {"measurement": "binding result", "setting": "[2]", "result": "binds"}
    ]}
  ]
}
